B1: mRNA-splicing (parent)
chain: AGUUGCUGCUGGGAGCUCCAGCACAGUGAAAUGGACAGAAGGGCAGAGCAA

Variants of: B1
Assay: exon inclusion enrichment index; higher = more inclusion; WT1 exon 5 minigene, HEK293
In the case of AGUUUCUUUUGGGAGCUCCAGCACAGUGAAAUGGACAGAAGGGCCCAGCAA [G5U G8U C9U A45C G46C], the “exon inclusion enrichment index” value is reported as 0.0849. In the case of AGUUUCUUUUGGGAGCUCCAGCACAGUGAAAUGGACAGAAGGGCCAAGCAA [G5U G8U C9U A45C G46A], the “exon inclusion enrichment index” value is reported as 0.056. In the case of AGUUUCUUUUGGGAGCUCCAGCACAGUGAAAUGGACAGAAGGGCCUAGCAA [G5U G8U C9U A45C G46U], the “exon inclusion enrichment index” value is reported as 0.0571. With AGUUUCUUUUGGGAGAACCAGCACAGUGAAAUGGACAGAAGGGCAGAGCAA [G5U G8U C9U C16A U17A] the “exon inclusion enrichment index” value was 0.0994. With AGUUUCUUUUGGGAGACCCAGCACAGUGAAAUGGACAGAAGGGCAGAGCAA [G5U G8U C9U C16A U17C] the “exon inclusion enrichment index” value was 0.0818. For AGUUUCUUUUGGGAGAGCCAGCACAGUGAAAUGGACAGAAGGGCAGAGCAA [G5U G8U C9U C16A U17G], the “exon inclusion enrichment index” value was 0.0387. For AGUUUCUUUUGGGAGCUCCAGCACAGUGAAAUGGACAGAAGGGCAGUACAA [G5U G8U C9U A47U G48A], the “exon inclusion enrichment index” value was 0.0727. With AGUUUCUUUUGGGAGCUCCAGCACAGUGAAAUGGACAGAAGGGCAGUCCAA [G5U G8U C9U A47U G48C] the “exon inclusion enrichment index” value was 0.0643. In the case of AGUUUCUUUUGGGAGCUCCAGCACAGUGAAAUGGACAGAAGGGCAGUUCAA [G5U G8U C9U A47U G48U], the “exon inclusion enrichment index” value is reported as 0.143. In the case of AGUUUCUUUUGGGAGCUCCAGCACAGUGAAAUGGACAGAAGGGCAGCCCAA [G5U G8U C9U A47C G48C], the “exon inclusion enrichment index” value is reported as 0.139. For AGUUUCUUUUGGGAGCUCCAGCACAGUGAAAUGGACAGAAGGGCAGCACAA [G5U G8U C9U A47C G48A], the “exon inclusion enrichment index” value was 0.0919. With AGUUUCUUUUGGGAGCUCCAGCACAGUGAAAUGGACAGAAGGGCAGCUCAA [G5U G8U C9U A47C G48U] the “exon inclusion enrichment index” value was 0.134. With AGUUUCUUUUGGGAGCUCCAGCACAGUGAAAUGGACAGAAGGGCAGGACAA [G5U G8U C9U A47G G48A] the “exon inclusion enrichment index” value was 0.0435. For AGUUUCUUUUGGGAGCUCCAGCACAGUGAAAUGGACAGAAGGGCAGGUCAA [G5U G8U C9U A47G G48U], the “exon inclusion enrichment index” value was 0.00268. With AGUUUCUUUUGGGAGCUCCAGCACAGUGAAAUGGACAGAAGGGCAGGCCAA [G5U G8U C9U A47G G48C] the “exon inclusion enrichment index” value was 0.0267. For AGUUUCUUUUGGGAGCUUUAGCACAGUGAAAUGGACAGAAGGGCAGAGCAA [G5U G8U C9U C18U C19U], the “exon inclusion enrichment index” value was 0.000815. For AGUUUCUUUUGGGAGCUUGAGCACAGUGAAAUGGACAGAAGGGCAGAGCAA [G5U G8U C9U C18U C19G], the “exon inclusion enrichment index” value was 0.0199. With AGUUUCUUUUGGGAGCUUAAGCACAGUGAAAUGGACAGAAGGGCAGAGCAA [G5U G8U C9U C18U C19A] the “exon inclusion enrichment index” value was 0.00338. For AGUUUCUUUUGGGAGCUGCAGCACAGUGAAAUGGACAGAAGGGCAGAGCAA [G5U G8U C9U C18G], the “exon inclusion enrichment index” value was 0.139. In the case of AGUUUCUUUUGGGAGCUUCAGCACAGUGAAAUGGACAGAAGGGCAGAGCAA [G5U G8U C9U C18U], the “exon inclusion enrichment index” value is reported as 0.0536. For AGUUUCUUUUGGGAGCUACAGCACAGUGAAAUGGACAGAAGGGCAGAGCAA [G5U G8U C9U C18A], the “exon inclusion enrichment index” value was 0.0931. With AGUUUCUUUUGGGAGCUGGAGCACAGUGAAAUGGACAGAAGGGCAGAGCAA [G5U G8U C9U C18G C19G] the “exon inclusion enrichment index” value was 0.195. In the case of AGUUUCUUUUGGGAGCUGAAGCACAGUGAAAUGGACAGAAGGGCAGAGCAA [G5U G8U C9U C18G C19A], the “exon inclusion enrichment index” value is reported as 0.159. In the case of AGUUUCUUUUGGGAGCUGUAGCACAGUGAAAUGGACAGAAGGGCAGAGCAA [G5U G8U C9U C18G C19U], the “exon inclusion enrichment index” value is reported as 0.00531. With AGUUUCUUUUGGGAGCUCCAGCACAGUGAAAUGGACAGAAGGGCCGAGCAA [G5U G8U C9U A45C] the “exon inclusion enrichment index” value was 0.201. For AGUUUCUUUUGGGAGCUCCAGCACAGUGAAAUGGACAGAAGGGCGGAGCAA [G5U G8U C9U A45G], the “exon inclusion enrichment index” value was 0.366. For AGUUUCUUUUGGGAGCUCCAGCACAGUGAAAUGGACAGAAGGGCUGAGCAA [G5U G8U C9U A45U], the “exon inclusion enrichment index” value was 0.21. In the case of AGUUUCUUUUGGGAGCUCAAGCACAGUGAAAUGGACAGAAGGGCAGAGCAA [G5U G8U C9U C19A], the “exon inclusion enrichment index” value is reported as 0.0498. For AGUUUCUUUUGGGAGCUCCAGCACAGUGAAAUGGACAGAAGGGCGAAGCAA [G5U G8U C9U A45G G46A], the “exon inclusion enrichment index” value was 0.672. With AGUUUCUUUUGGGAGCUCCAGCACAGUGAAAUGGACAGAAGGGCGCAGCAA [G5U G8U C9U A45G G46C] the “exon inclusion enrichment index” value was 0.262. For AGUUUCUUUUGGGAGCUCCAGCACAGUGAAAUGGACAGAAGGGCGUAGCAA [G5U G8U C9U A45G G46U], the “exon inclusion enrichment index” value was 0.0933. In the case of AGUUUCUUUUGGGAGCUCCAGCACAGUGAAAUGGACAGAUUGGCAGAGCAA [G5U G8U C9U A40U G41U], the “exon inclusion enrichment index” value is reported as 0.0547. For AGUUUCUUUUGGGAGUACCAGCACAGUGAAAUGGACAGAAGGGCAGAGCAA [G5U G8U C9U C16U U17A], the “exon inclusion enrichment index” value was 0.0519. With AGUUUCUUUUGGGAGUCCCAGCACAGUGAAAUGGACAGAAGGGCAGAGCAA [G5U G8U C9U C16U U17C] the “exon inclusion enrichment index” value was 0.0384. In the case of AGUUUCUUUUGGGAGUGCCAGCACAGUGAAAUGGACAGAAGGGCAGAGCAA [G5U G8U C9U C16U U17G], the “exon inclusion enrichment index” value is reported as 0.0101. With AGUUUCUUUUGGGAGCUCCAGCACAGUGAAAUGGACAGAAGGGCAGGGCAA [G5U G8U C9U A47G] the “exon inclusion enrichment index” value was 0.0159. For AGUUUCUUUUGGGAGCUCCAGCACAGUGAAAUGGACAGAAGGGCAGCGCAA [G5U G8U C9U A47C], the “exon inclusion enrichment index” value was 0.283. With AGUUUCUUUUGGGAGCUCCAGCACAGUGAAAUGGACAGAAGGGCAGUGCAA [G5U G8U C9U A47U] the “exon inclusion enrichment index” value was 0.115. For AGUUUCUUUUGGGAGCUAGAGCACAGUGAAAUGGACAGAAGGGCAGAGCAA [G5U G8U C9U C18A C19G], the “exon inclusion enrichment index” value was 0.00406. For AGUUUCUUUUGGGAGCUAUAGCACAGUGAAAUGGACAGAAGGGCAGAGCAA [G5U G8U C9U C18A C19U], the “exon inclusion enrichment index” value was 0.0019. In the case of AGUUUCUUUUGGGAGCUAAAGCACAGUGAAAUGGACAGAAGGGCAGAGCAA [G5U G8U C9U C18A C19A], the “exon inclusion enrichment index” value is reported as 0.00397. With AGUUUCUUUUGGGAGCUCACGCACAGUGAAAUGGACAGAAGGGCAGAGCAA [G5U G8U C9U C19A A20C] the “exon inclusion enrichment index” value was 0.0372. In the case of AGUUUCUUUUGGGAGUUCCAGCACAGUGAAAUGGACAGAAGGGCAGAGCAA [G5U G8U C9U C16U], the “exon inclusion enrichment index” value is reported as 0.128. For AGUUUCUUUUGGGAGAUCCAGCACAGUGAAAUGGACAGAAGGGCAGAGCAA [G5U G8U C9U C16A], the “exon inclusion enrichment index” value was 0.141. In the case of AGUUUCUUUUGGGAGGUCCAGCACAGUGAAAUGGACAGAAGGGCAGAGCAA [G5U G8U C9U C16G], the “exon inclusion enrichment index” value is reported as 0.0374. With AGUUUCUUUUGGGAGCUCCAGCACAGUGAAAUGGACAGAAGGGCUAAGCAA [G5U G8U C9U A45U G46A] the “exon inclusion enrichment index” value was 0.0906. With AGUUUCUUUUGGGAGCUCCAGCACAGUGAAAUGGACAGAAGGGCUCAGCAA [G5U G8U C9U A45U G46C] the “exon inclusion enrichment index” value was 0.11. In the case of AGUUUCUUUUGGGAGCUCCAGCACAGUGAAAUGGACAGAAGGGCUUAGCAA [G5U G8U C9U A45U G46U], the “exon inclusion enrichment index” value is reported as 0.0271. For AGUUUCUUUUGGGAGGGCCAGCACAGUGAAAUGGACAGAAGGGCAGAGCAA [G5U G8U C9U C16G U17G], the “exon inclusion enrichment index” value was 0.00571. With AGUUUCUUUUGGGAGGCCCAGCACAGUGAAAUGGACAGAAGGGCAGAGCAA [G5U G8U C9U C16G U17C] the “exon inclusion enrichment index” value was 0.0319. For AGUUUCUUUUGGGAGGACCAGCACAGUGAAAUGGACAGAAGGGCAGAGCAA [G5U G8U C9U C16G U17A], the “exon inclusion enrichment index” value was 0.115.

From the RNAGym collection of RNA variant scans (doi:10.1101/gr.219683.116)
